Test results: patent publication US20240360208A1 (Hoffmann-La Roche, published 2024)
Blank lines part the entries; values can stand above or below the binder they belong to.

Target: T1, human FcγRIIb receptor on CHO-K1 cells (clone 223) (human, UniProt P31994 43-310)
T1 sequence (looked up): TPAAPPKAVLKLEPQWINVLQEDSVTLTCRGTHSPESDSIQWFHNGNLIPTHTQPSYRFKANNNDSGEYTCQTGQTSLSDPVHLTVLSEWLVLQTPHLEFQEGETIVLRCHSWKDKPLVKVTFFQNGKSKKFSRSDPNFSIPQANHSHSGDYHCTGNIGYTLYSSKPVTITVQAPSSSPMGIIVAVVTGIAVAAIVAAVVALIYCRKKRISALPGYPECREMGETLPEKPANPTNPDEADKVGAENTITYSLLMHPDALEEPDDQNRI
Assay: cell-based or functional assay

- Depletion level max (%) of CCL2 from the supernatant: 45%
- EC50 [nM] of CCL2 depletion: 0.6 nM
- EC90 [nM] of CCL2 depletion: ~30 nM
B1: CKLO2-GG02 (=P1AF8139) (bispecific antibody)
heavy 1: DIQMTQSPSSLSASVGDRVTITCKAFEDIYNRRAWYQQKPGKAPKLLIHGATSLEHGVPSRFSGSGSGTDYTLTISSLQPEDFATYYCQQFWSAPYTFGGGTKVEIKSSASTKGPSVFPLAPSSKSTSGGTAALGCLVKDYFPEPVTVSWNSGALTSGVHTFPAVLQSSGLYSLSSVVTVPSSSLGTQTYICNVNHKPSNTKVDKKVEPKSCDKTHTCPPCPAPEYLGGDSVFLFPPKPKDVLMISRTPEVTCVVIDVSHEDPEVKFNWYVDGVEVHNAKTKPREEQYNSTYRVVSVLPVLHRDWLNGKEYKCKVSNKALPKPIEKTISKAKGQRREPQVYTLPPCRDELTKNQVSLWCLVKGFYPSDIAVEWESNGQPENNYKTTPPVLDSDGSFFLYSKLTVDKSRWQQGNVFSCSVLHEALHAHTTRKELSLSP
heavy 2: not shown
light 1: QVQLVQSGAEVKKPGSSVKVSCKASGLTISHTYMHWVRQAPGQGLEWMGRIDPDNHNTKFDPKFQGRVTITADTSTSTAYMELSSLRSEDTAVYYCARGVFGFFEHWGQGTTVTVSSASVAAPSVFIFPPSDEQLKSGTASVVCLLNNFYPREAKVQWKVDNALQSGNSQESVTEQDSKDSTYSLSSTLTLSKADYEKHKVYACEVTHQGLSSPVTKSFNRGEC
light 2: EIVLTQSPATLSLSPGERATLSCRASQHVSDAYLAWYQQKPGQAPRLLIYDASDRAEGVPARFSGSGSGTDFTLTISSLEPEDFAVYYCHQYIHLHSFTFGQGTKVEIKRTVAAPSVFIFPPSDRKLKSGTASVVCLLNNFYPREAKVQWKVDNALQSGNSQESVTEQDSKDSTYSLSSTLTLSKADYEKHKVYACEVTHQGLSSPVTKSFNRGEC

- Depletion level max (%) of CCL2 from the supernatant: 82%
- EC50 [nM] of CCL2 depletion: 0.14 nM
- EC90 [nM] of CCL2 depletion: 0.4 nM
B2: P1AF8143 (CKLO2-CB-GG02) (bispecific antibody)
chain 1: not shown
chain 2: QVQLVQSGAEVKKPGSSVKVSCKASGLTISHTYMHWVRQAPGQGLEWMGRIDPDNHNTKFDPKFQGRVTITADTSTSTAYMELSSLRSEDTAVYYCARGVFGFFEHWGQGTTVTVSSASTKGPSVFPLAPSSKSTSGGTAALGCLVKDYFPEPVTVSWNSGALTSGVHTFPAVLQSSGLYSLSSVVTVPSSSLGTQTYICNVNHKPSNTKVDKKVEPKSCGGSGGGGSGGDKTHTCPPCPAPEYLGGDSVFLFPPKPKDVLMISRTPEVTCVVIDVSHEDPEVKFNWYVDGVEVHNAKTKPREEQYNSTYRVVSVLPVLHRDWLNGKEYKCKVSNKALPKPIEKTISKAKGQRREPQVYTLPPCRDELTKNQVSLWCLVKGFYPSDIAVEWESNGQPENNYKTTPPVLDSDGSFFLYSKLTVDKSRWQQGNVFSCSVLHEALHAHTTRKELSLSPGKGGSGGGGSGGDIQMTQSPSSLSASVGDRVTITCKAFEDIYNRRAWYQQKPGKAPKLLIHGATSLEHGVPSRFSGSGSGTDYTLTISSLQPEDFATYYCQQFWSAPYTFGGGTKVEIKRTVAAPSVFIFPPSDEQLKSGTASVVCLLNNFYPREAKVQWKVDNALQSGNSQESVTEQDSKDSTYSLSSTLTLSKADYEKHKVYACEVTHQGLSSPVTKSFNRGEC
